Results on six molecules are retold here after US8623627B2, “Labelling of fusion proteins with synthetic probes” (New England Biolabs, Inc, priority 2006, dated 2014).

One series concerns the target T1, 6×His-^NAGT (Homo sapiens, UniProt P16455, A127T/A154D/C150Q/C62A/G131K/G132T/G153L/K125A/K32I/L33F/M134L/N157G/Q115S/Q116H/R128A/R135S/S151G/S152D/S159E).
T1 construct: ^NAGT is a 182 amino acid mutant of ^wtAGT in which the last 25 amino acids are deleted
T1 sequence (P16455 1-182 K32I/L33F/C62A/Q115S/Q116H/K125A/A127T/R128A/G131K/G132T/M134L/R135S/C150Q/S151G/S152D/G153L/A154D/N157G/S159E): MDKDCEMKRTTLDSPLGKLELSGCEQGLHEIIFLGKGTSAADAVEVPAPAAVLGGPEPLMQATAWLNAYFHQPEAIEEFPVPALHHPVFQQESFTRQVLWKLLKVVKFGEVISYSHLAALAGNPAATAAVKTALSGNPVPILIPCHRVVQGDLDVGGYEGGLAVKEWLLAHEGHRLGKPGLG
The series can be described thus: In vitro specific dual labelling assay, labelling of 6×His-^NAGT. Type of series: biochemical. To be noted: equimolar GST-ACT1 and 6×His-^NAGT 0.5 μM, single substrate 5 μM, 24° C., 60 minutes. The procedure: (§1) Fluorescent dye-labelled protein mixtures were analyzed by SDS-PAGE, see Example 12. GST-ACT1: fusion protein of ACT 1 (SEQ ID NO:1) with glutathione S-transferase (GST). 6×His-AGT: fusion protein of ^NAGT (SEQ ID NO:2) with the short peptide 6×His. […] BCFL: compound 5 (Example 4). BCCy5: compound 10 (Example 8).
(§2) Labelling reactions were quenched by addition of 4× SDS buffer (8% SDS, 10% β-mercaptoethanol, 240 mM Tris pH 6.8, 40% glycerol) and incubation for 5 min at 95° C. Fluorescent dye-labelled protein mixtures were analyzed by SDS-PAGE as described above.

For the next series, the target named is T2, GST-ACT1 (Homo sapiens, UniProt P16455, A127T/A154D/C150Q/C62A/G131S/G132T/G153L/K125A/K32I/L33F/M134L/N157G/Q115S/Q116H/R128A/R135D/S151G/S152D/S159M/V148E/Y114R).
T2 construct: made in house
T2 sequence (P16455 1-182 K32I/L33F/C62A/Y114R/Q115S/Q116H/K125A/A127T/R128A/G131S/G132T/M134L/R135D/V148E/C150Q/S151G/S152D/G153L/A154D/N157G/S159M): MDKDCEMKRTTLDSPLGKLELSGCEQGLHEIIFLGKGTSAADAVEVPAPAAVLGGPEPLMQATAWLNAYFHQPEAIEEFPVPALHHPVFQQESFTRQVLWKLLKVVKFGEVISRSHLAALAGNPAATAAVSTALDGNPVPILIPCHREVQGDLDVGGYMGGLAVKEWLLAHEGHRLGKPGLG
The series can be described thus: In vitro specific dual labelling assay, labelling of GST-ACT1. The format is biochemical. The following applies: equimolar GST-ACT1 and 6×His-^NAGT 0.5 μM, single substrate 5 μM, 24° C., 60 minutes. The procedure:
as §1, §2

Series [1] in a line: Reaction rates of labelling of GST fusion proteins with BGFL. Type of series: biochemical. The following applies: for kBGFL: second-order rate constant, GST-fusion protein with BGFL, 50 mM HEPES pH 7.2, 24° C. The procedure:
(§3) The fluorescent readout of an SDS gel run after different time of incubation is shown on top with the corresponding graph at the bottom. The percentage of ACT-Fluorescein conjugate (% ACT-FL) formed from ACT is shown vs. time of incubation (min). […] GST-ACT10: fusion protein of ACT 10 (SEQ ID NO:12) with glutathione S-transferase (GST).
(§4) The genes of mutants isolated after phage selection according to Example 9 were amplified by PCR using primers 6 (N, AGT, SEQ ID NO:8) and 7 (C, AGT, SEQ ID NO:9) that contain, respectively, BamH1 and EcoR1 restriction sites for subsequent subcloning into pGEX-2T vector (Amersham Biosciences, Otelfingen, Switzerland). Expression and purification of proteins as GST-ACT fusion proteins were performed as previously described for AGT fusion proteins (A. Juillerat, T. Gronemeyer, A. Keppler, S. Grendreizig, H. Pick, H. Vogel, K. Johnsson, Chem. Biol. 10:313, 2003). […] Samples were taken at different times and the labelling reaction was quenched by addition of 4× SDS buffer (8% SDS, 10% β-mercaptoethanol, 240 mM Tris pH 6.8, 40% glycerol) and incubation at 95° C. for 5 min. The reaction advancement was determined by detection of the fluorescent dye-labelled proteins in SDS-PAGE gel and quantification of fluorescence intensity using a Pharox FX™ molecular imager. The data were fitted to a pseudo-first order reaction model. Second-order rate constants were then obtained by dividing the pseudo first-order constant by the concentration of fluorogenic substrate.

Series [2] in a line: Urea-induced unfolding, read out as ACT-Fluorescein formed with BCFL. Type of series: physicochemical. The following applies: for half unfolding urea concentration C1/2: protein 0.5 μM, urea 0 to 8 M for 30 minutes, then 20 μM BCFL for 2 hours. The procedure: Shown is the percentage of ACT-Fluorescein (% ACT-FL) formed. The value obtained at 0 M urea [(NH2)2CO] is set to 100%. Protein (0.5 μM) was incubated in kinetic buffer (50 mM HEPES, pH 7.2, 1 mM DTT) supplemented with urea (0 to 8 M) for 30 minutes. Then the solution was adjusted to 20 μM BCFL and incubated for 2 hours. Samples were then boiled 5 min at 95° C. in SDS buffer. Fluorescent dye-labelled protein mixtures were analyzed by SDS-PAGE. The data set was fitted with Y=100/(1+10^((log C1/2−X)*HillSlope)) to get the half unfolding urea concentration C1/2. The following values of C1/2 were found for the different mutants: • ACT1 2.8±0.1 M; ACT9 4.1±0.1 M; ACT10 5.1±0.2 M.

Series [3] can be described thus: Reaction rates of labelling of GST fusion proteins with BCFL. The format is biochemical. The following applies: for kBCFL: second-order rate constant, GST-fusion protein with BCFL, 50 mM HEPES pH 7.2, 24° C. The procedure: as §3, §4
For series [4] the following is noted: versus ^wtAGT; cited from earlier work.

Turning to “O^6-[4-(Cy5)-Aminomethyl]-benzyl guanine [BGCy5]”, at 6×His-^NAGT, the “labelling of 6×His-^NAGT” value is “complete labelling”.
`Nc1ccnc(OCc2ccc(CNC(=O)c3ccc4c(c3)C3(OC4=O)c4ccc(O)cc4Oc4cc(O)ccc43)cc2)n1` [BCFL, N-[4-(4-Aminopyrimidin-2-yloxymethyl)-benzyl]-fluorescein-6-carboxamide]: the “labelling of 6×His-^NAGT” value on 6×His-^NAGT is on record as 76%. Moreover, the “labelling of GST-ACT1” value on GST-ACT1 is reported as “complete labelling”.
As to “N-[4-(4-Aminopyrimidin-2-yloxymethyl)-benzyl]-Cy5-carboxamide [BCCy5]”, at 6×His-^NAGT, the “labelling of 6×His-^NAGT” value is 6%. Besides, the “labelling of GST-ACT1” value on GST-ACT1 is listed as “complete labelling”.

B1: ACT 10: alkylcytosine transferase 10, SEQ ID NO:12, from error prone PCR of ACT9 (protein)
chain: MDKDCEMKRTTLDSPLGKLELSGCEQGLHEIIFLGKGTSAADAVEVPAPAAVLGGPEPLIQATAWLNAYFHQPEAIEEFPVPALHHPVFQQESFTRQVLWKLLKVVKFGEVISESHLAALVGNPAATAAVNTALDGNPVPILIPCHRVVQGDSDVGPYLGGLAVKEWLLAHEGHRLGKPGLG
modifications: alyklcytosine transferase 10 derived from O6- alkylguanine-DNA alkyltransferase
The molecule B1 displayed a kBG in series [1] (FIG. 2, 0.5 μM GST-ACT10 with BGFL) of around 10 M⁻¹ s⁻¹. For the same molecule, the kBGFL in series [1] is 10 M⁻¹ s⁻¹. Moreover, the “stability against denaturation by urea” value in series [2] (4 M urea) is “high stability”. In addition, in series [2], the “half unfolding urea concentration C1/2” value worked out at 5.1 ± 0.2 M. For the same molecule, in series [3], the reactivity towards benzylcytosine result was “high reactivity” and the kBCFL was found to be 1130 M⁻¹ s⁻¹. In addition, in series [3] (FIG. 2, 0.5 μM GST-ACT10 with BCFL), the kBC stood at 1130 ± 150 M⁻¹ s⁻¹.

B2: ^NAGT: 182 amino acid mutant of ^wtAGT, SEQ ID NO:2, starting point for directed evolution (protein)
chain: MDKDCEMKRTTLDSPLGKLELSGCEQGLHEIIFLGKGTSAADAVEVPAPAAVLGGPEPLMQATAWLNAYFHQPEAIEEFPVPALHHPVFQQESFTRQVLWKLLKVVKFGEVISYSHLAALAGNPAATAAVKTALSGNPVPILIPCHRVVQGDLDVGGYEGGLAVKEWLLAHEGHRLGKPGLG
modifications: O6-alkylguanine-DNA alkyltransferase (AGT) mutant
As for B2, in series [1], the kBGFL is 28000 M⁻¹ s⁻¹. Also, in series [4], the “higher activity towards benzylguanine derivatives than wild-type ^wtAGT” value is reported as “approximately 50 fold”. The kBCFL in series [3] amounted to 26 M⁻¹ s⁻¹.

B3: ACT 1: alkylcytosine transferase 1, SEQ ID NO:1, derived from ^NAGT by directed evolution (protein)
chain: MDKDCEMKRTTLDSPLGKLELSGCEQGLHEIIFLGKGTSAADAVEVPAPAAVLGGPEPLMQATAWLNAYFHQPEAIEEFPVPALHHPVFQQESFTRQVLWKLLKVVKFGEVISRSHLAALAGNPAATAAVSTALDGNPVPILIPCHREVQGDLDVGGYMGGLAVKEWLLAHEGHRLGKPGLG
modifications: alkylcytosine transferase 1 derived from O6- alkylguanine-DNA alkyltransferase
The molecule B3 displayed a kBGFL in series [1] below 10 M⁻¹ s⁻¹. In addition, the “half unfolding urea concentration C1/2” value in series [2] was determined as 2.8 ± 0.1 M. Also, the kBCFL in series [3] came to 730 M⁻¹ s⁻¹.
